The source of these data is patent publication US20080009025A1, “PROTEIN KINASE REGULATION” (priority 1999, published 2008).

For one experiment, the target named is T1, PDK1-L155E (Homo sapiens, UniProt O15530, L155E).
T1 construct: made in house; host or cells: human embryonic kidney 293 cells
T1 sequence (O15530 1-556 L155E): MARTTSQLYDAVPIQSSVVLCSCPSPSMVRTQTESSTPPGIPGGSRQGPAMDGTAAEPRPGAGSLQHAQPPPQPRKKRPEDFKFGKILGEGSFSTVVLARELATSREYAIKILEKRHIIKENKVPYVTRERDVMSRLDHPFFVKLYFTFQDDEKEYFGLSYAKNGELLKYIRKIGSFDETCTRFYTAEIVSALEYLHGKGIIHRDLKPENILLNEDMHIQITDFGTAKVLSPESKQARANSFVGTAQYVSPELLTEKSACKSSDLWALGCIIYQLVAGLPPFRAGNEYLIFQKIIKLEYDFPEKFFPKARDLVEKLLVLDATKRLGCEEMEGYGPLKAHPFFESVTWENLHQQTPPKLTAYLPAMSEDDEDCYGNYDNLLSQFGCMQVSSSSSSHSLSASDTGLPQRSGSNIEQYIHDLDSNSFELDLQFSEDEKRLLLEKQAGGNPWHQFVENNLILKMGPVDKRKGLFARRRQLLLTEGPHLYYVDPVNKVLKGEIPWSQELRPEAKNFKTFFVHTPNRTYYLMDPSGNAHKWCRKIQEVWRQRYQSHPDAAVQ
Put plainly: Phosphorylation of AGC kinase substrates by PDK1 (32P, PhosphoImager). The class given is biochemical. The following applies: PKB[S473D] rate by PDK1-wt = 100; for Relative phosphorylation of PDK1 substrates PDK1-L155E +PIFtide: with PIFtide; for Relative phosphorylation of PDK1 substrates PDK1-L155E —: without PIFtide. On the procedure:
(§1) Phosphorylation of AGC kinase substrates by PDK1. The phosphorylation of PDK1 substrates was performed in a final volume of 20 μl in a buffer containing 50 mM Tris-HCl pH 7.5, 0.1% (by vol) 2-mercaptoethanol, 10 mM magnesium chloride, 100 μM [γ-^32P]ATP (˜1000 c.p.m./pmol), 0.5 μM microcystin-LR, 0.6 μM AGC kinase substrate and 0.6 to 30 nM wild type PDK1 or the indicated mutant of PDK1.
(§2) Relative phosphorylation of PDK1 substrates. PDK1 substrates were phosphorylated in vitro, subjected to SDS-PAGE, and radioactivity associated with the bands measured using a Phospho-Imager and known amounts of ATP as standard. The phosphorylation rate of PKB[S473D] in the presence of PtdIns (3,4,5)P3 was 2.6 mol/mol PDK1/min and was taken as the relative value of 100. Average values from a representative experiment performed in duplicates are shown.

Another experiment deals with T2, PDK1-wt (Homo sapiens, UniProt O15530).
T2 construct: made in house; host or cells: human embryonic kidney 293 cells
T2 sequence (O15530 1-556): T1 sequence (O15530 1-556 L155E) with E155L
Described as above. The class given is biochemical. The following applies: for Relative phosphorylation of PDK1 substrates PDK1-wt +PIFtide: with PIFtide; for Relative phosphorylation of PDK1 substrates PDK1-wt +PIFtide / Relative phosphorylation of PDK1 substrates PDK1-wt —: PKB[S473D] rate with PtdIns(3,4,5)P3 = 100; for Relative phosphorylation of PDK1 substrates PDK1-wt —: without PIFtide. On the procedure: as §1, §2

A further experiment relates to p70 S6K. In words: IGF1-induced activation and Thr412 phosphorylation of HA-p70 S6K in co-transfected 293 cells. The following applies: 293 cells. It counts as cell-based, human. On the procedure: FIG. 3. PIF inhibits p70 S6K activation and phosphorylation at Thr252 and Thr412. 293 cells were co-transfected with constructs expressing the wild type (wt) full length HA-p70 S6K (A) or the full length HA-T412E p70 S6K (B) with either GST-PIF, GST-F977A-PIF, or GST. 24 h post transfection the cells were serum starved for 16 h and them stimulated for 40 min with 100 nM IGF 1. The cells were lysed and HA-p70 S6K was immunoprecipitated and assayed as described in methods. Protein from each lysate (10 μg for the HA blots or 20 μg for the T412-P blot) was electrophoresed on a 10% SDS/polyacrylamide gel and immunoblotted using HA-antibody or the T412-P antibody. The T412-P antibody was incubated with either the synthetic peptide (10 μg/ml) corresponding to residues 401 to 418 of p70 S6K phosphorylated at Thr412 (phosph-412E peptide), or the unphosphorylated peptide (de-phospho-Thr412 peptide). The T412-P antibody consistently recognises a protein termed “non specific band” in cell lysates which migrate at (75 kDa) derived from non transfected and transfected cells. […] It is not co-immunoprecipitated with HA-p70 S6K (date not shown). The HA-p70 S6K activities shown are the average ±SEM for a single experiment carried out in triplicate. Similar results were obtained in 8 separate experiments (A) and 2 experiments (B). The immunoblotting was carried out in 3 separate experiments with similar results.
Transient Transfection Experiments. The DNA constructs encoding for the wild type and mutant forms of HA-p70 S6K in the pMT2 vector used in this study have been described previously. […] The constructs used to express GST-PIF and the mutant GST-F977A-PIF [22] are in the pEBG2T vector. The empty pEBG2T vector was used to express GST protein in control experiments. DNA constructs used in this study were purified from bacteria using the Qiagen plasmid Mega kit according to the manufacturer's protocol.
293 cells cultured on 10 cm diameter dishes in Dulbecco's Modified Eagle's Medium containing 10% (by vol) foetal bovine serum, were transfected with 2 μg of DNA construct encoding either wild type or mutant HA-p70 S6K or HA-PKBα, and 10 μg of DNA construct encoding either GST-PIF, GST-F977A-PIF, GST, Myc-PDK1, kinase-dead Myc-PDK1, or the empty pCMV5 vector using a modified calcium phosphate method. 24 h post transfection the cells were deprived of serum for 16 h, and exposed to IGF1 (100 nM) for the time indicated. The cells were lysed in 1 ml of lysis buffer (50 mM Tris/HCl pH 7.5, 1 mM EDTA, 1 mM EGTA, 1% (by vol) Triton X-100, 1 mM sodium orthovanadate, 10 mM sodium β-glycerophosphate, 50 mM NaF, 5 mM sodium pyrophosphate, 1 μM microcystin-LR, 0.27 M sucrose and protease cocktail tablets), cleared by centrifugation, and 50 μg of protein was subjected to immunoprecipitation with anti HA monoclonal antibody. The protein concentrations of the lysates were determined by the Bradford method.
Kinase assays. The HA-p70 S6K or HA-PKBα immunoprecipitates were washed and assayed for kinase activity using the peptide Crosstide (GRPRTSSFAEG) as described previously for PKBα [28]. One unit of activity, U, was that amount which catalysed the phosphorylation of 1 nmol of substrate in one minute.
Immunoblotting for dephosphorylated and Thr412-phosphorylated p70 S6 kinase. Cell lysates were made 1% SDS and the indicated amounts of protein were subjected to SDS/Polyacrylamide gel electrophoresis, subsequently transferred to nitrocellulose and immunoblotted using the indicated monoclonal antibody or the T412-P phospho-specific antibody (0.4 μg/ml) in 50 mM Tris/HCl pH7.5, 0.15M NaCl, 0.5% (by vol) Tween and 10% (by mass) skimmed milk. Detection was performed using the enhanced chemiluminescence reagent (Amersham Pharmacia Biotech).

Numbering of substitutions follows the chain as printed.

For the substance “FL-PKB 473D: full length PKBα with Ser473 mutated to Asp”, in the experiment with PDK1-L155E, the “Relative phosphorylation of PDK1 substrates PDK1-L155E +PIFtide” value came to 162 and the “Relative phosphorylation of PDK1 substrates PDK1-L155E —” value turned out to be 178. The phosphorylation rate with PDK1-wt (in the presence of PtdIns (3,4,5)P3) was 2.6 mol/mol PDK1/min. In the experiment with PDK1-wt, the “Relative phosphorylation of PDK1 substrates PDK1-wt +PIFtide” value is listed as 85.4 and the “Relative phosphorylation of PDK1 substrates PDK1-wt —” value amounted to 100.

Take “GST-F977A-PIF: mutant form of GST-PIF which interacts with PDK1 weakly”: in the experiment with p70 S6K (100 nM IGF1 40 min), the “HA-p70 S6K activity after IGF1 stimulation” value is “substantially activated”. Further, in the experiment with p70 S6K (T412-P antibody), the “IGF1-induced phosphorylation of HA-p70 S6K at Thr412” value was “still occurred but a lower level”.

As to FL-PKB: full length GST-tagged PKBα, in the experiment with PDK1-L155E, the “Relative phosphorylation of PDK1 substrates PDK1-L155E +PIFtide” value came to 35 and the “Relative phosphorylation of PDK1 substrates PDK1-L155E —” value worked out at 35. In the experiment with PDK1-wt, the “Relative phosphorylation of PDK1 substrates PDK1-wt +PIFtide” value stood at 19.3 and the “Relative phosphorylation of PDK1 substrates PDK1-wt —” value is 28.
